Laboratory results published in publication PMC10980420, “Abscisic acid–induced transcription factor PsMYB306 negatively regulates tree peony bud dormancy release”.

Key:
PsMYB306 [1] = target: T1, PsMYB306 (Paeonia suffruticosa, UniProt A0A7M3T7P1 1-327); test: EMSA; LightShift EMSA Optimization and Control Kit (Pierce); buffer, salt, pH and temperature not stated; conditions: protein: recombinant; tags: His (pET28a, BamHI/HindIII); label: biotin (5' of strand 1 as printed, Bio-); blunt
PsMYB306 [2] = target: T1, PsMYB306; test: competition; unlabeled competitor at 50- and 100-fold against N1; signal attenuated; LightShift EMSA Optimization and Control Kit (Pierce); buffer, salt, pH and temperature not stated; conditions: protein: recombinant; tags: His (pET28a, BamHI/HindIII); label: none; blunt

T1 sequence (A0A7M3T7P1 entry or part of it): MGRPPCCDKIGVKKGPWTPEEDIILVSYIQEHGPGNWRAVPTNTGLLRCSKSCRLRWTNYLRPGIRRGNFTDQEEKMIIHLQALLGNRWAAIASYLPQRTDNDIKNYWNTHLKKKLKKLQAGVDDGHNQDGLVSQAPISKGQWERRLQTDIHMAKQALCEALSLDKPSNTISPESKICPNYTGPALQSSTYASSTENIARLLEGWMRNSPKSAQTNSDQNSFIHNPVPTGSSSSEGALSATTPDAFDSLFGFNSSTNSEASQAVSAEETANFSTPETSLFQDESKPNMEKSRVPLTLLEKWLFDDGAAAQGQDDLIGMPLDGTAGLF

Binder | binding result (PsMYB306 [1]) | binding result (PsMYB306 [2])
pPsNCED3 mutant probe (dsDNA) DNA 1: ACTTAGGATTACTCAGCCATAACTTCCTTCTT DNA 2: AAGAAGGAAGTTATGGCTGAGTAATCCTAAGT | no binding | –
pPsNCED3 WT probe (dsDNA) DNA 1: ACTTAGGATTACTAGTTAATAACTTCCTTCTT DNA 2: AAGAAGGAAGTTATTAACTAGTAATCCTAAGT | binds | –
pPsNCED3 WT cold competitor (dsDNA) DNA 1: ACTTAGGATTACTAGTTAATAACTTCCTTCTT DNA 2: AAGAAGGAAGTTATTAACTAGTAATCCTAAGT | – | binds
